{"source": "paper PMC7325057", "test_system": "CC(=O)N(O)CCCC[C@H](N)C(=O)O", "test": "purified protein", "conditions": "2 mM citrate, 2 mM ATP, 15 mM MgCl2, pH 7.5, 37 °C, apparent"}
{"substance": "hvKP IucA (Klebsiella pneumoniae subsp. pneumoniae)", "values": [{"measurement": "Km", "value": "790 ± 20", "unit": "µM"}, {"measurement": "kcat", "value": "0.85 ± 0.02", "unit": "s⁻¹"}, {"measurement": "kcat/Km", "value": 1080, "unit": "M⁻¹ s⁻¹"}]}
